Assay results: PMC6545562, “Slx5/Slx8‐dependent ubiquitin hotspots on chromatin contribute to stress tolerance” (The EMBO Journal, 2019)

Target: T1, 6His-Slx5, recombinant (S. cerevisiae, UniProt P32828 1-619)
T1 construct: Slx5, S. cerevisiae; Host and purification are in the Appendix Supplementary Methods; source: recombinant
T1 sequence (looked up): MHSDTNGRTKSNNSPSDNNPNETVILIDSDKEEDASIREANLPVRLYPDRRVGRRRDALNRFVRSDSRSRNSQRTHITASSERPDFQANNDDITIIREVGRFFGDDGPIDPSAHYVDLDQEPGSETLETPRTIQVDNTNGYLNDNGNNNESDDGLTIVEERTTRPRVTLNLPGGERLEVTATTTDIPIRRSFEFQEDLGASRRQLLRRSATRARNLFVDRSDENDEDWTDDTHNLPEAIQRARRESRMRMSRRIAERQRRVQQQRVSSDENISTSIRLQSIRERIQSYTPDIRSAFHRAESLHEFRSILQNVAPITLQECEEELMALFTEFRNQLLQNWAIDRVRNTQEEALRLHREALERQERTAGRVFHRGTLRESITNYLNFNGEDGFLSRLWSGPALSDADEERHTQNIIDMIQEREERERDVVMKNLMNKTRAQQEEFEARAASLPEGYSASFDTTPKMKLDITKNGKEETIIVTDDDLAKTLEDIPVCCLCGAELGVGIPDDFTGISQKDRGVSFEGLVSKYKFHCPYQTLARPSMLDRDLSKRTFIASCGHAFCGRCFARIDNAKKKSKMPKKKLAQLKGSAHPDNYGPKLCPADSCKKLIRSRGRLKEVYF
Experiment: pull-down; GST pull-down: recombinant purified GST or GST-Euc1 used to co-precipitate recombinant 6His-Slx5
Details: both partners purified

B1: GST-Euc1, recombinant (natural protein, S. cerevisiae, UniProt Q04461 1-462, looked up)
chain: MPAREYNYVEGFGGYGSLDDDDSDRDSERRNHDLGQRTITTSPTGVSRHAALNRYMIPGRINPLFRPTDAAQPPIVSTSTSASATEPTNRIGPGRIKETPETNFNAFLIAQLTRMEEQNANLKEEISLMKKEQELFFLENQKKLEKGFKDINKYVEDVSAMKEVFKEVVGIMTGERIRFIDHTGENVTPQEAARVGNPSTSTQAHQSQSRSTNWQEYSMHASILAGDPRIKPEPGLSDFENGEYDGNESDENATTRNLPLNNPDSVSNADDSNNQLDGTGNENDIRNRRGCVGTSYKLNRAIQNVTDAAREYFEGLPGQPSVLSLERRYGSTWRRSAKERTLFTKRMTIIKRIIDIKDDPSKYGLSLPENKISRNQAIKVVENIRLGNNTFKGHHCRLSMSQLYEYFSKKMDKLEDYSLTLKRRGKPRRIFLLEEREARLSLQQPHSIPNSSTGTPEHDQDT
notes: Euc1 (Ymr111c), S. cerevisiae; Host and purification are in the Appendix Supplementary Methods; also called recombinant, non‐SUMOylated Euc1; source: recombinant, purified
B1: binds.
